Our source for the screen value values is paper PMC7954794 (2021).

B1: S. cerevisiae Abp1 (full length; SH3 domain 535-592 mutated) / Hua2 (parent complex)
chain 1: MALEPIDYTTHSREIDAEYLKIVRGSDPDTTWLIISPNAKKEYEPESTGSSFHDFLQLFDETKVQYGLARVSPPGSDVEKIIIIGWCPDSAPLKTRASFAANFAAVANNLFKGYHVQVTARDEDDLDENELLMKISNAAGARYSIQTSSKQQGKASTPPVKKSFTPSKSPAPVSKKEPVKTPSPAPAAKISSRVNDNNDDDDWNEPELKERDFDQAPLKPNQSSYKPIGKIDLQKVIAEEKAKEDPRLVQKPTAAGSKIDPSSDIANLKNESKLKRDSEFNSFLGTTKPPSMTESSLKNDDDKVIKGFRNEKSPAQLWAERKAKQNSGNAETKAEAPKPEVPEDEPEGEPDVKDLKSKFEGLAASEKEEEEMENKFAPPPKKSEPTIISPKPFSKPQEPVKAEEAEQPKTDYKKIGNPLPGMHIEADNEEEPEENDDDWDDDEDEAAQPPLPSRNVASGAPVQKEEPEQEEIAPSLPSRNSIPAPKQEEAPEQAPEEEIEEEAEEAAPQLPSRSSAAPPPPPRRATPEKKPKENPWATAEYDYDAAEDNELTFVENDKIINIEFVDDDWWLGELEKDGSKGLFPSNYVSLGN
chain 2: MQQTKFGKMYLDHDSVVEYSEDEIVEADRITLGYKKRLSMIENQMRHLLEDFSLDVQQIEPILADLQKYYDAFLQLLQKRNKSLQCKRSTHQPVPSPMNSQTSTNAKVNLSGKLMKFQLNSVQKFDEENILRILQNKIEFEHYFQIDKGKKQKVLLLAVYQCLNGPTRLHKVLNIEGIIHNNSIRTILGKQVSSSKWTVFLYDVKLVLLAHRQDVPNLETSKMIVRYGDLFPCALYFKDHTAY

Variants of B1 are the subject of this experiment. The experiment is described as follows: DHFR protein-fragment complementation in yeast (Abp1-DHFR F[1,2] x partner-DHFR F[3]), deep mutational scanning, second methotrexate selection vs reference; S. cerevisiae, DHFR-PCA selection in liquid with methotrexate at 30 C, two 72 h selections (the score uses the second); reference = the pre-selection culture.
As for chain 1 MALEPIDYTTHSREIDAEYLKIVRGSDPDTTWLIISPNAKKEYEPESTGSSFHDFLQLFDETKVQYGLARVSPPGSDVEKIIIIGWCPDSAPLKTRASFAANFAAVANNLFKGYHVQVTARDEDDLDENELLMKISNAAGARYSIQTSSKQQGKASTPPVKKSFTPSKSPAPVSKKEPVKTPSPAPAAKISSRVNDNNDDDDWNEPELKERDFDQAPLKPNQSSYKPIGKIDLQKVIAEEKAKEDPRLVQKPTAAGSKIDPSSDIANLKNESKLKRDSEFNSFLGTTKPPSMTESSLKNDDDKVIKGFRNEKSPAQLWAERKAKQNSGNAETKAEAPKPEVPEDEPEGEPDVKDLKSKFEGLAASEKEEEEMENKFAPPPKKSEPTIISPKPFSKPQEPVKAEEAEQPKTDYKKIGNPLPGMHIEADNEEEPEENDDDWDDDEDEAAQPPLPSRNVASGAPVQKEEPEQEEIAPSLPSRNSIPAPKQEEAPEQAPEEEIEEEAEEAAPQLPSRSSAAPPPPPRRATPEKKPKENHWATAEYDYDAAEDNELTFVENDKIINIEFVDDDWWLGELEKDGSKGLFPSNYVSLGN [chain 1 P535H], the screen value is -0.124 DMS score: mean over two replicates of log2(f_test/f_ref + 0.5)/ln 2, minus the synonymous-codon median (not a log2 ….
chain 1 MALEPIDYTTHSREIDAEYLKIVRGSDPDTTWLIISPNAKKEYEPESTGSSFHDFLQLFDETKVQYGLARVSPPGSDVEKIIIIGWCPDSAPLKTRASFAANFAAVANNLFKGYHVQVTARDEDDLDENELLMKISNAAGARYSIQTSSKQQGKASTPPVKKSFTPSKSPAPVSKKEPVKTPSPAPAAKISSRVNDNNDDDDWNEPELKERDFDQAPLKPNQSSYKPIGKIDLQKVIAEEKAKEDPRLVQKPTAAGSKIDPSSDIANLKNESKLKRDSEFNSFLGTTKPPSMTESSLKNDDDKVIKGFRNEKSPAQLWAERKAKQNSGNAETKAEAPKPEVPEDEPEGEPDVKDLKSKFEGLAASEKEEEEMENKFAPPPKKSEPTIISPKPFSKPQEPVKAEEAEQPKTDYKKIGNPLPGMHIEADNEEEPEENDDDWDDDEDEAAQPPLPSRNVASGAPVQKEEPEQEEIAPSLPSRNSIPAPKQEEAPEQAPEEEIEEEAEEAAPQLPSRSSAAPPPPPRRATPEKKPKENPWATAEYDYAAAEDNELTFVENDKIINIEFVDDDWWLGELEKDGSKGLFPSNYVSLGN [chain 1 D544A]: the screen value was 0.497 DMS score: mean over two replicates of log2(f_test/f_ref + 0.5)/ln 2, minus the synonymous-codon median (not a log2 ….
chain 1 MALEPIDYTTHSREIDAEYLKIVRGSDPDTTWLIISPNAKKEYEPESTGSSFHDFLQLFDETKVQYGLARVSPPGSDVEKIIIIGWCPDSAPLKTRASFAANFAAVANNLFKGYHVQVTARDEDDLDENELLMKISNAAGARYSIQTSSKQQGKASTPPVKKSFTPSKSPAPVSKKEPVKTPSPAPAAKISSRVNDNNDDDDWNEPELKERDFDQAPLKPNQSSYKPIGKIDLQKVIAEEKAKEDPRLVQKPTAAGSKIDPSSDIANLKNESKLKRDSEFNSFLGTTKPPSMTESSLKNDDDKVIKGFRNEKSPAQLWAERKAKQNSGNAETKAEAPKPEVPEDEPEGEPDVKDLKSKFEGLAASEKEEEEMENKFAPPPKKSEPTIISPKPFSKPQEPVKAEEAEQPKTDYKKIGNPLPGMHIEADNEEEPEENDDDWDDDEDEAAQPPLPSRNVASGAPVQKEEPEQEEIAPSLPSRNSIPAPKQEEAPEQAPEEEIEEEAEEAAPQLPSRSSAAPPPPPRRATPEKKPKENPWATAEYDYDAAEDNELTFVEADKIINIEFVDDDWWLGELEKDGSKGLFPSNYVSLGN [chain 1 N556A]: the screen value is -0.361 DMS score: mean over two replicates of log2(f_test/f_ref + 0.5)/ln 2, minus the synonymous-codon median (not a log2 ….
For the variant chain 1 MALEPIDYTTHSREIDAEYLKIVRGSDPDTTWLIISPNAKKEYEPESTGSSFHDFLQLFDETKVQYGLARVSPPGSDVEKIIIIGWCPDSAPLKTRASFAANFAAVANNLFKGYHVQVTARDEDDLDENELLMKISNAAGARYSIQTSSKQQGKASTPPVKKSFTPSKSPAPVSKKEPVKTPSPAPAAKISSRVNDNNDDDDWNEPELKERDFDQAPLKPNQSSYKPIGKIDLQKVIAEEKAKEDPRLVQKPTAAGSKIDPSSDIANLKNESKLKRDSEFNSFLGTTKPPSMTESSLKNDDDKVIKGFRNEKSPAQLWAERKAKQNSGNAETKAEAPKPEVPEDEPEGEPDVKDLKSKFEGLAASEKEEEEMENKFAPPPKKSEPTIISPKPFSKPQEPVKAEEAEQPKTDYKKIGNPLPGMHIEADNEEEPEENDDDWDDDEDEAAQPPLPSRNVASGAPVQKEEPEQEEIAPSLPSRNSIPAPKQEEAPEQAPEEEIEEEAEEAAPQLPSRSSAAPPPPPRRATPEKKPKENPWATAEYAYDAAEDNELTFVENDKIINIEFVDDDWWLGELEKDGSKGLFPSNYVSLGN [chain 1 D542A], the screen value was 0.327 DMS score: mean over two replicates of log2(f_test/f_ref + 0.5)/ln 2, minus the synonymous-codon median (not a log2 ….
For chain 1 MALEPIDYTTHSREIDAEYLKIVRGSDPDTTWLIISPNAKKEYEPESTGSSFHDFLQLFDETKVQYGLARVSPPGSDVEKIIIIGWCPDSAPLKTRASFAANFAAVANNLFKGYHVQVTARDEDDLDENELLMKISNAAGARYSIQTSSKQQGKASTPPVKKSFTPSKSPAPVSKKEPVKTPSPAPAAKISSRVNDNNDDDDWNEPELKERDFDQAPLKPNQSSYKPIGKIDLQKVIAEEKAKEDPRLVQKPTAAGSKIDPSSDIANLKNESKLKRDSEFNSFLGTTKPPSMTESSLKNDDDKVIKGFRNEKSPAQLWAERKAKQNSGNAETKAEAPKPEVPEDEPEGEPDVKDLKSKFEGLAASEKEEEEMENKFAPPPKKSEPTIISPKPFSKPQEPVKAEEAEQPKTDYKKIGNPLPGMHIEADNEEEPEENDDDWDDDEDEAAQPPLPSRNVASGAPVQKEEPEQEEIAPSLPSRNSIPAPKQEEAPEQAPEEEIEEEAEEAAPQLPSRSSAAPPPPPRRATPEKKPKENPWATAEYEYDAAEDNELTFVENDKIINIEFVDDDWWLGELEKDGSKGLFPSNYVSLGN [chain 1 D542E], the screen value is 0.0251 DMS score: mean over two replicates of log2(f_test/f_ref + 0.5)/ln 2, minus the synonymous-codon median (not a log2 ….
